Test results published in US20220119522A1 (DENALI THERAPEUTICS, published 2022).
No end group written: not given here.

T1: human TREM2 full length stalk region peptide (aa 129-172) (human, biotinylated (site not stated))
T1 construct: also called Human TREM2 peptide (aa 129-172); full-length TREM2 stalk peptide
T1 peptide: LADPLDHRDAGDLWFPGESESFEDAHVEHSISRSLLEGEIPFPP

T2: human TREM2 truncated stalk peptide (aa 149-163) (human, also: biotinylated (site not given here))
T2 construct: also called Human TREM2 peptide (aa 149-163); truncated stalk peptide containing the ADAM10/17 cleavage site
T2 peptide: SFEDAHVEHSISRSL

T3: human TREM2 on the cell surface (human, UniProt Q9NZC2 19-230)
T3 construct: also called surface TREM2; TREM2 expressed in HEK293-H6 cells
T3 sequence: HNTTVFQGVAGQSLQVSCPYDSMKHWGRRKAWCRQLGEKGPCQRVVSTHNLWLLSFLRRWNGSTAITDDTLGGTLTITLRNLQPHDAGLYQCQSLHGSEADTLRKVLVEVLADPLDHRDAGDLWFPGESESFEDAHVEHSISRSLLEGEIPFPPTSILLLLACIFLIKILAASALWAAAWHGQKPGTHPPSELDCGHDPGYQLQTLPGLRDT

T4: His-tagged human TREM2 ECD (human, UniProt Q9NZC2 19-172)
T4 construct: Biacore and HDX say only recombinant human TREM2 (ECD); also called recombinant human TREM2; hTREM2
T4 sequence: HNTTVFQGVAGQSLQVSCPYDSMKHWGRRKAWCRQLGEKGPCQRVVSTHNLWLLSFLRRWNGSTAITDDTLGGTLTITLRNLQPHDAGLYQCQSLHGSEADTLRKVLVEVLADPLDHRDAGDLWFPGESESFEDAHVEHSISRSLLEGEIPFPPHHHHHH

T5: mouse TREM2 full length stalk region peptide (aa 131-169) (mouse, UniProt Q99NH8 131-169, biotinylated (site not stated))
T5 peptide (looked up): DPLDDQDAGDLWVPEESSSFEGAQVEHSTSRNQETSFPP


Key:
[1] = biological target: T1, human TREM2 full length stalk region …; test: ELISA on biotinylated peptide captured by streptavidin; A450 normalised to isotype control
Description: (§1) TREM2 antibodies were evaluated for binding to human and mouse TREM2 stalk region peptides. […] Antibody binding to TREM2 stalk peptides was detected using standard sandwich ELISA. Briefly, a 96-well half-area ELISA plate was coated with streptavidin overnight at 4° C. The following day, biotinylated TREM2 stalk peptides diluted in 1% BSA/PBS were added to the plate and incubated for 1 hour. Antibodies diluted in 1% BSA/PBS were then added and incubated for 1 hour. Antibodies bound to peptide were detected with anti-human kappa-HRP secondary antibody (Bethyl Laboratories, Inc.) diluted in 1% BSA/PBS. Plates were assayed by reaction with a detection reagent (One-step TMB Ultra, Thermo) and measurement of absorbance at 450 nm (A450) by standard spectrophotometry instrumentation (BioTek®). Data are shown as normalized values (fold over background where background=isotype control).

[2] = biological target: T2, human TREM2 truncated stalk peptide (aa …); test: as above
Description: as §1

[3] = biological target: T3, human TREM2 on the cell surface; test: cell binding, human macrophages, dose titration
[4] = biological target: T3, human TREM2 on the cell surface; test: cell-based or functional assay
[5] = biological target: T4, His-tagged human TREM2 ECD; test: SPR (Biacore), antibody captured via anti-human Fab, recombinant TREM2 ECD injected, 1:1 fit
Description: (§2) Surface plasmon resonance (Biacore™ 8K instrument) was used to measure anti-TREM2 antibody affinities for human and cynomolgus TREM2 ECD. Anti-TREM2 antibodies were captured using Human Fab Capture Kit (GE Healthcare Life Sciences, Catalog No. 28958325) on a Biacore Series S CM5 sensor chip (GE Healthcare Life Sciences, Catalog No. 29149604). Serial 3-fold dilutions of recombinant human or cynomolgus TREM2 were injected at a flow rate of 30 μL/min. Antibody binding was monitored for 300 seconds, followed by monitoring of antibody dissociation for 600+seconds in HBS-EP+ running buffer (GE Healthcare Life Sciences, Catalog No. BR100669). The binding response was corrected by subtracting the RU value from a blank flow cell. A 1:1 Languir model of simultaneous fitting of kₒₙ and koff was used for kinetics analysis.

[6] = biological target: T6, recombinant cynomolgus TREM2 ECD (cynomolgus); test: as above
T6 construct: extracellular domain; also called cyno TREM2
Description: as §2

[7] = biological target: T5, mouse TREM2 full length stalk region …; test: ELISA on biotinylated peptide captured by streptavidin; A450 normalised to isotype control
Description: as §1

[8] = biological target: T3, human TREM2 on the cell surface; test: flow cytometry, dose-titrated binding to HEK293-H6 cells
Description: After incubation, the cells were centrifuged and washed in FACS buffer (PBS+0.5% BSA) twice. Mixed cells were resuspended in FACS buffer with human Trustain FcX solution (Biolegend, Catalog No. 422302) at a density of 10⁶/mL per cell line. The mixed cell lines were seeded at 200,000 cells per well in a 96-well round-bottom plate and incubated for 20 minutes at room temperature. After incubation, the cells were centrifuged and incubated with anti-TREM2 antibodies of about 0-200 nM dose titration for 45 minutes on ice. After incubation, the cells were centrifuged and washed with FACS buffer three times. […] After incubation, the cells were washed with FACS buffer three times, resuspended in 100 μL of FACS buffer, and analyzed by flow cytometry (BD FACSCanto II, San Jose, Calif.), for which 30,000 events were obtained for each sample. Mean fluorescence intensity per cells were calculated by FlowJo software and used for generating dose response binding curve.
(§3) Sequence optimization was conducted by searching within CDR sequences for residues that are susceptible to chemical modification (e.g., asparagine deamidation motifs (NG), aspartic acid isomerization motifs (DS), and potential oxidation residues (tryptophan (W) and methionine (M)) and making amino acid substitutions with conservative and germline residues to remove such sequence liabilities. Humanized and sequence-optimized variants of anti-TREM2 antibodies were then analyzed for binding kinetics using Biacore and dose-titrated cell binding to HEK293-H6 cells (see, Example 1 for representative protocols).

[9] = biological target: T4, His-tagged human TREM2 ECD; test: SPR (Biacore)
Description: as §2, §3

Binder	fold over background (A450) [1]	fold over background (A450) [2]	EC50 [3]	pSyk activation (HEK293-H6) EC50 (nM) [4]	Kd [5]	Kd [6]	fold over background (A450) [7]	NFAT EC50 (nM), plate coated mAb [4]	pSyk activation (human macrophages) EC50 (nM) [4]	EC50 [8]	Kd [9]	Survival EC50 (nM), plate coated mAb, human macrophages [4]
CL0020313 (antibody, V domains shown, also called Clone CL0020313) VH: QVQLKQSGPGLLQPSQSLSITCTVSGFSLTSYGVHWVRQSPGKGLEWLGVIWSGGITLYNAAFMSRLSITKDNSKSQVFFKMNSLQADDTAIYYCAKVGYGSSSDYWGQGTTLTVSS VL: DVLMTQSPLSLPVSLGDQASFSCRSSQSIVHSNGNTYLEWYLQKPGQSPKLLIYKVSNRFSGVPDRFSGSGSGTDFTLKISRVEAEDLGVYYCFQGSHVPFTFGSGTKLEIK	12 fold	1.2 fold	1.2 nM	46.6 nM	14 nM	13.8 nM	–	–	–	–	–	30.7 nM
CL0020308 (antibody, V domains shown, also called Clone CL0020308) VH: QVQLKQSGPSLVQPSQSLSITCTVSGFSLTTYGIHWVRQSPGKGLEWLGVIWTGGSTAFNAAFMSRLSITKDNSKSQVFFKMNSLQADDTAIYYCAKVGFHSATDYWGQGTSVTVSS VL: DVLMTQTPLSLPVTLGDQASISCRSSQNLVHSNGNTYLEWYLQKPGQSPKLLIYKVSNRFSGVPDRFSGSGSGTDFTLKISRVEAEDLGLYYCFQGSHVPFTFGSGTKLEIK	11 fold	–	0.6 nM	33.4 nM	2.31 nM	2.28 nM	7.9 fold	51.9 nM	–	–	–	8.9 nM
CL0020309 (antibody, V domains shown, also called Clone CL0020309) VH: QVQLKQSGPSLVQPSQSLSITCTVSGFSLTSYGVQWVRQSPGKGLEWLGVIWTGGTTDFNAAFKSRLSITKDNSKSQVFFKMNSLQADDSAIYYCAKIGFHSAVDYWGQGTSVTVSS VL: DVLMTQTPLSLPVSLGDQASISCRSSQNIVHSNGNTYLEWYLQKPGQSPKLLIYKVSNRFSGVPDRFSGSGSGTDFTLKINRVEAEDLGLYYCFQGSHIPFTFGSGTQLEIK	11 fold	–	0.7 nM	40.6 nM	5.31 nM	5.33 nM	6.6 fold	–	–	–	–	2.69 nM

Stronger by Kd [5], values ahead:

fold over background (A450) [1]	fold over background (A450) [2]	EC50 [3]	pSyk activation (HEK293-H6) EC50 (nM) [4]	Kd [5]	Kd [6]	fold over background (A450) [7]	NFAT EC50 (nM), plate coated mAb [4]	pSyk activation (human macrophages) EC50 (nM) [4]	EC50 [8]	Kd [9]	Binder	Survival EC50 (nM), plate coated mAb, human macrophages [4]
1.6 fold	1.3 fold	1.6 nM	–	1.6 nM	0.3 nM	1.4 fold	30.8 nM	23.8 nM	–	–	CL0020139 (antibody, V domains shown, also called Clone CL0020139) VH: EVQLQQSGPELVKPGASVKMSCKAPGYSFTSYLMNWVKQKPGQGLEWIGYINPYSAGSNYNEKFKDKATLTSDKSSSTAYMELRSLTSEDSAVYFCARSSYRYGFDYWGQGTTLTVSS VL: DIQMTQSSSSFSVSLGDRVTITCKASEDIYNRLAWYQQKPGNAPRLLISGATSLETGVPSRFSGSGSGKDYTLSITSLQTEDVATYSCQQYWSTPWTFGGGTKLEIK	1.8 nM
14 fold	1.7 fold	–	–	0.54 nM	13.4 nM	5.4 fold	81.7 nM	9.5 nM	–	–	CL0020201 (antibody, V domains shown, also called Clone CL0020201) VH: EVQLQQSGPVLVKPGASVRMSCKPSGYTFTDYYMNWVKQSHGKSLEWIGSINPYTGGSSYNQNFRGKATLTVDKSSSTAYMELNSLTSEDSAVYYCARGSYYSNLGFAYWGQGTLVTVSA VL: DVQLTQSPSFLTASPGETITINCRASKSISKYLAWYQEKPGKTNKLLISSGSTLQSGIPSRFSGSGSGTDFTLTISSLEPEDFAMYYCQQYSEYPFTFGSGTKLEIK	6.6 nM
1.2 fold	1.2 fold	0.3 nM	–	0.068 nM	5.7 nM	1 fold	–	7 nM	0.26 nM	0.1 nM	CL0020123 (antibody, V domains shown, also called Clone CL0020123) VH: EVQLQQSGAELVRSGASVKLSCTASGFSIEDFYIHWVKQRPEQGLEWIGWIDPENGDSKYAPKFQGKATMTADTSSNTAYLHLSSLTSEDTAVYYCHADHGNYGSTMDYWGQGTSVTVSS VL: DIQMNQSPSSLSASLGDTVTITCHASQHINVWLSWYQQKPGDHPKLLIYKASNLHTGVPSRFSGSGSGTGFTLTISSLQPEDIATYYCQQGQTYPRTFGGGTKLEIK	44.7 nM
11 fold	1.2 fold	0.05 nM	18.8 nM	0.33 nM	56.9 nM	1 fold	–	–	–	–	CL0020314 (antibody, V domains shown, also called Clone CL0020314) VH: DVKLVESGGGLVKLGGSLKLSCAASGFTFSSYYMSWVRQTPEKRLELVAAINTNGGRTYYPDTVKGRFTISRDNAKNTLYLQMSSLKSEDTALYYCARESDGGAFAYWGQGTLVTVSA VL: DVVMTQTPLSLPVSLGDQASISCRSSQSLVHSNGNTYLHWYLQKPGQSPKLLIYKVSNRFSGVPDRFSGSGSGTDFTLKISRVEAEDLGVYFCSQNTHVPLTFGAGTKLELK	1.6 nM
8.7 fold	1.3 fold	5.6 nM	–	0.0259 nM	2.52 nM	6.8 fold	72.7 nM	–	–	–	CL0020315 (antibody, V domains shown, also called Clone CL0020315) VH: EVQLQQSGPELVKPGASVKISCKASGYTFTDYNIHWVKQSHGKSLEWIGYIYPYNGVTGYNQKFKSKATLTVDNSSSTAYMELRSLTSEDSAVYYCARSRVDGDYWGQGTTLTVSS VL: DVVMTQTPLSLPVSLGDQASISCRSSQSLVHSNGNTYLHWYLQKPGQSPKLLIYKISNRFSGVPDRFSGSGSGTDFTLKISRVEAEDLGVYFCSQSTHVPLTFGAGTKLELK	10.1 nM
